Experimental data from US5496831, “Inhibition of insulin-induced adiposis” (The General Hospital Corporation).

How the values were obtained:
[1] = target: E2F-1 (UniProt Q01094 Q01094:1-437); test: cell_activity; CAT stimulation by CMV-E2F in L6 muscle cells; tetramer on minimal GAPDH promoter; conditions: tags: CMV-E2F expression plasmid
[2] = target: T1, GST-RBAP-1 (E2F-1) (UniProt Q01094 Q01094:1-437); test: competition; competitor vs labelled IRE-A; conditions: tags: GST fusion, bacterial expression, glutathione Sepharose purified; label: 32P when used as probe
T1 sequence (Q01094 whole entry, the tested form may be a part, one chain of several): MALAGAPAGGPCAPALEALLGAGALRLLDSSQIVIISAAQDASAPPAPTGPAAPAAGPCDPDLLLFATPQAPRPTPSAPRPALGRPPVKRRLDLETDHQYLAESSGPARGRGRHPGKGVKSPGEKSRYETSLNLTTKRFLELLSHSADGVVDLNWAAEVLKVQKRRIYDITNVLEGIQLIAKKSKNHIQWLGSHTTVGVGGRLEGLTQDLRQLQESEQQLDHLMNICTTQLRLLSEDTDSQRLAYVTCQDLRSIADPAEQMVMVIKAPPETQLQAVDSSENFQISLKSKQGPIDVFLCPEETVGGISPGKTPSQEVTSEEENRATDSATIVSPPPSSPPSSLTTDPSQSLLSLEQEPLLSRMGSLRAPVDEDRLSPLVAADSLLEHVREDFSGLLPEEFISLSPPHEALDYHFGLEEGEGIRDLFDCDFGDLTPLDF
Experimental: (§1) FIG. 4C is an electrophoretic mobility shift assay showing IRP-A and GST-RBAP-1 complexes with IRE-A DNA. GST-RBAP-1 (lanes 1–3) or nuclear proteins isolated from fasted-refed liver nuclear extract (lanes 4–6) were incubated with ^32P-labelled IRE-A DNA in the presence of: lanes 1 and 4, mutant IRE-A DNA (GC→TA); lanes 2 and 5, wild-type E2 DNA; and, lanes 3 and 6, mutant E2 DNA (GC→TA) as described above.
(§2) The EMSA procedure has been described previously (Nasrin, et al., Proc. Natl. Acad. Sci. USA, 87:5273–5277, 1990). Nuclear extract or GST-RBAP-1 was incubated with 0.25–0.5 ng of ^32P-labelled oligo in 20 μl of binding buffer containing 10 mM HEPES (pH 7.9), 0.1 mM EDTA, 10 mM MgCl_2, 5 mM KCl, 150 mM NaCl, 25 mM DTT and 250 ng of poly(dI)poly(dC). The reaction products were separated at 4° C. in a 4.5% polyacrylamide gel run in 50 mM Tris-HCL (pH 8.5), 380 mM glycine and 2 mM EDTA. The gel was dried and exposed to film. The sequences of the oligonucleotides used to characterize IRE-A-like and E2F-like DNA binding activities are shown. Cognate E2F sites include E2F wild-type, 5'-[…]-[…]-3' (SEQ ID NO: 4); E2F mutant, 5'-ATT-[…]-3' (SEQ ID NO: 5); DRTF wild-type, 5'-[…]-3' (SEQ ID NO: 6). The GAPDH IRE-A used for gel shifts included nucleotides −487 to −408 of the promoter (Nasrin, et al., Proc. Natl. Acad. Sci. USA, 87:5273–5277, 1990). […]

[3] = target: T1, GST-RBAP-1 (E2F-1); test: competition; mutant competitor vs labelled IRE-A; conditions: tags: GST fusion, bacterial expression, glutathione Sepharose purified
Experimental: as §1, §2

E2F-1, sequence (Q01094 whole entry, the tested form may be a part, one chain of several): as above

B1: IRE-A minimal motif tetramer-CAT (dsDNA)
DNA 1: AAGTTCCCCAACTTTCCCGCCTCTCAGCCTTTGAAAG
DNA 2: CTTTCAAAGGCTGAGAGGCGGGAAAGTTGGGGAACTT
Binder B1 has an activity [1] of 7 fold.

B2: E2 (cognate E2F site) wild-type (dsDNA)
DNA 1: ATTTAAGTTTCGCGCCCTTTCTCAA
DNA 2: TTGAGAAAGGGCGCGAAACTTAAAT
B2: binds [2].

B3: E2 mutant (GC to TA) (dsDNA)
DNA 1: ATTTAAGTTTCGATCCCTTTCTCAA
DNA 2: TTGAGAAAGGGATCGAAACTTAAAT
B3: no binding [3].
